B1: FITC-dsDNA (dsDNA)
DNA 1: ATGGAATGGAAT
DNA 2: ATTCCATTCCAT
B2: dsDNA (dsDNA)
DNA 1: ATGGAATGGAAT
DNA 2: ATTCCATTCCAT

How the values were obtained:
[1] = biological target: bovine SOD1, rhodamine B labeled (bovine, UniProt P00442 2-152); assay: FRET; 20 mM Tris-HCl pH 7.4; 100 uM DNA, 200 uM SOD1; fitted from kinetic curve; FRET: 20 mM Tris-HCl pH 7.4, 37 C, 2 h; MST: 10 mM PBS pH 7.4, 0.05% Tween, room temperature, 5 min; SAXS: 100 uM bovine SOD1 and dsDNA, buffer not given in material; conditions: protein: commercial; tags: rhodamine B label; chain copies: 2; blunt
bovine SOD1, rhodamine B labeled, sequence (P00442 2-152): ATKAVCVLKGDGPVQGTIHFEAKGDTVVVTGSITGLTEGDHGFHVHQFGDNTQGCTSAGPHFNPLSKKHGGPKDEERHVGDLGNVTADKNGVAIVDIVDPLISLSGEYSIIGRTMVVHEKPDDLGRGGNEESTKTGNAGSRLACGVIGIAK

[2] = biological target: human Cu/Zn superoxide dismutase SOD1, RED-NHS labeled (human, UniProt P00441 1-154); assay: MST; 500 nM SOD1; DNA two-fold dilutions from 20 uM; FRET: 20 mM Tris-HCl pH 7.4, 37 C, 2 h; MST: 10 mM PBS pH 7.4, 0.05% Tween, room temperature, 5 min; SAXS: 100 uM bovine SOD1 and dsDNA, buffer not given in material; conditions: protein: recombinant; tags: N-terminal His tag; RED-NHS dye; chain copies: 2; blunt
human Cu/Zn superoxide dismutase SOD1, RED-NHS labeled, sequence (P00441 whole entry): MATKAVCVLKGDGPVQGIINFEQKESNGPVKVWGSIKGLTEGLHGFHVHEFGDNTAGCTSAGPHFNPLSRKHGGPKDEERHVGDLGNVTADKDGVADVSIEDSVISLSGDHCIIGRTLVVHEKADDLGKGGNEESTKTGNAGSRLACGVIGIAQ

Binder | Kd [1] [nM] | Kd [2] [nM]
B1 | 105 | 
B2 |  | 155

Reference: article PMC9604462, “SAXS Examinations of the Redox-Dependent Formation of a DNA-SOD1 Complex”
